Laboratory results: patent US20250042957A1 (Molecular Partners, published 2025)
Read-outs that look alike come from different tables or passages of the source.

Tests used:
scCD3εγ [1] = target: T1, scCD3εγ; assay: ELISA: plate-bound biotinylated scCD3εγ, His-tagged construct titrated without and with 100 nM soluble VEGF
T1 chain 1: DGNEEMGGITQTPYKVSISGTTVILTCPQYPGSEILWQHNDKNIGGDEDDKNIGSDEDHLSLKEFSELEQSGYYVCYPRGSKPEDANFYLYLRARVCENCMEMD
T1 chain 2: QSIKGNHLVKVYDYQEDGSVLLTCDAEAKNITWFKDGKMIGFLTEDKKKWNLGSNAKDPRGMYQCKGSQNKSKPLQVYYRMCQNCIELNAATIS
Description: (§1) The difference in binding of Switchdrug DARPins to scCD3εγ in presence and absence of VEGF was assessed. […] Said Switchdrug DARPins were mixed with a constant concentration of VEGF (100 nM) and tested for binding to scCD3εγ. […] The difference in EC50 of a construct in presence and absence of VEGF can be referred to as the “activation window”.
(§2) Switchdrug DARPins that were mixed with VEGF were titrated and pre-incubated for 1 day with VEGF in order to establish the thermodynamic equilibrium. These samples were loaded on the ELISA plate, incubated and washed, before the bound Switchdrug DARPins were detected as described above.

scCD3εγ [2] = target: T1, scCD3εγ; assay: ELISA: plate-bound biotinylated scCD3εγ, His-tagged construct titrated in presence of 100 nM soluble VEGF
Description: as §1, §2

scCD3εγ [3] = target: T1, scCD3εγ; assay: as above
Description: as §1, §2

scCD3εγ [4] = target: T1, scCD3εγ; assay: ELISA: plate-bound biotinylated scCD3εγ, His-tagged construct titrated, no VEGF
Description: as §1, §2

scCD3εγ [5] = target: T1, scCD3εγ; assay: ELISA: plate-bound biotinylated scCD3εγ, His-tagged construct titrated without and with 100 nM soluble VEGF
Description: as §1, §2

[6] = target: Maltose binding protein (MBP) (E. coli); assay: ELISA on MBP, DARPin titrated
[7] = target: T2, Aminoglycoside phosphotransferase (APH) (Enterococcus faecalis (Streptococcus …, UniProt P0A3Y5 2-264)); assay: ELISA on APH, DARPin titrated
T2 chain: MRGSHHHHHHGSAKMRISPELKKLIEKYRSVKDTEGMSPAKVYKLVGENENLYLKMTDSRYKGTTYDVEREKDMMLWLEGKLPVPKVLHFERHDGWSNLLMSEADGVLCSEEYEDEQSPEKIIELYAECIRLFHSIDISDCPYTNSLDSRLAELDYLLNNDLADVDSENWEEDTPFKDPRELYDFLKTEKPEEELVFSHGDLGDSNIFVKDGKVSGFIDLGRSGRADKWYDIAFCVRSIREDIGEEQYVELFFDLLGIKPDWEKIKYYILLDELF

[8] = target: T2, Aminoglycoside phosphotransferase (APH)
VEGF165 = target: T3, VEGF165 (UniProt P15692-4 27-191, biotinylated in the ELISA of Example 4 (site not stated)); assay: ELISA: plate-bound biotinylated VEGF165, His-tagged construct titrated, no soluble VEGF, anti-His-HRP detection
T3 construct: also called biotinylated VEGF165; soluble VEGF
T3 sequence (P15692 other isoform, or with tags, fused parts or gaps limits assumed): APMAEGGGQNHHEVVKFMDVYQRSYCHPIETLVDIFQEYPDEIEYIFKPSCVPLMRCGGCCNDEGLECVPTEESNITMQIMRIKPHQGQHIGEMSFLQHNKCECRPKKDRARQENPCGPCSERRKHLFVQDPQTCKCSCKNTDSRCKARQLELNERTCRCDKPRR

scCD3εγ [9] = target: T1, scCD3εγ; assay: ELISA: plate-bound biotinylated scCD3εγ, His-tagged construct titrated without and with 100 nM soluble VEGF
Description: as §1, §2

scCD3εγ [10] = target: T1, scCD3εγ; assay: ELISA: plate-bound biotinylated scCD3εγ, His-tagged construct titrated in presence of 100 nM soluble VEGF
Description: as §1, §2

scCD3εγ [11] = target: T1, scCD3εγ; assay: ELISA: plate-bound biotinylated scCD3εγ, His-tagged construct titrated, no VEGF
Description: as §1, §2

B1: Switchdrug DARPin 15-3 (designed binder)
chain: MRGSHHHHHHGSDLDKKLLEAARAGQDDEVRILLKAGADVNAKDSTGWTPLHLAAPWGHPEIVEVLLKAGADVNAKDFQGWTPLHLAAAAGHLEIVEVLLKAGADVNAKDWLGWTPLHLAASHGHLEIVEVLLKAGADVNAQDKSGKTPADLAARAGHQDIAEVLQKAAGSPTPTPTTPTPTPTTPTPTPTGSDLGKKLLEAARAGQDDEVRELLKAGADVNAKDKDGYTPLHLAAREGHLEIVEVLLKAGADVNAKDKDGYTPLHLAAREGHLEIVEVLLKAGADVNAQDKSGKTPADLAADAGHEDIAEVLQKAAGSPTPTPTTPTPTPTTPTPTPTGSDLGQKLLEAAWAGQDDEVRELLKAGADVNAKNSRGWTPLHTAAQTGHLEIFEVLLKAGADVNAKNDKRVTPLHLAAALGHLEIVEVLLKAGADVNARDSWGTTPADLAAKYGHQDIAEVLQKAA
notes: also called 2-in-1 DARPin15 in Format 3
- shift in EC50 upon addition of 100 nM VEGF (scCD3εγ [1]): ~54 fold
- EC50 (read off the curve) (scCD3εγ [2]): ~8 nM

B2: Switchdrug DARPin 17-3 (designed binder)
chain: MRGSHHHHHHGSDLGKKLLQAARAGQLDEVRELLKAGADVNAKDSTGWTPLHLAAPWGHPEIVEVLLKAGADVNAKDFQGWTPLHLAAAAGHLEIVEVLLKAGADVNAKDWLGWTPLHLAASHGHLEIVEVLLKAGADVNAQDKSGKTPADLAARAGHQDIAEVLQKAAGSPTPTPTTPTPTPTTPTPTPTGSDLGKKLLEAARAGQDDEVRELLKAGADVNAKDKDGYTPLHLAAREGHLEIVEVLLKAGADVNAKDKDGYTPLHLAAREGHLEIVEVLLKAGADVNAQDKSGKTPADLAADAGHEDIAEVLQKAAGSPTPTPTTPTPTPTTPTPTPTGSDLGQKLLEAAWAGQDDEVRELLKAGADVNAKNSRGWTPLHTAAQTGHLEIFEVLLKAGADVNAKNDKRVTPLHLAAALGHLEIVEVLLKAGADVNARDSWGTTPADLAAKYGHQDIAEVLQKAA
notes: also called 2-in-1 DARPin17 in Format 3
- shift in EC50 upon addition of 100 nM VEGF (scCD3εγ [1]): ~100 fold
- EC50 (read off the curve) (scCD3εγ [2]): ~3 nM

B3: Switchdrug DARPin 18-1 (designed binder)
chain: MRGSHHHHHHGSDLGQKLLEAAWAGQDDEVRELLKAGADVNAKNSRGWTPLHTAAQTGHLEIFEVLLKAGADVNAKNDKRVTPLHLAAALGHLEIVEVLLKAGADVNARDSWGTTPADLAAKYGHQDIAEVLQKAAGSPTPTPTTPTPTPTTPTPTPTGSDLDKKLLEAARAGQDDEVRILLKAGADVNAKDSTGWTPLHLAAPWGHPEIVEVLLKAGADVNAKDFQGWTPLHLAAAAGHLEIVEVLLKAGADVNAKDVYGWTPLHIAAASGHLEIVEVLLKAGADVNAKDWLGWTPLHLAASHGHLEIVEVLLKAGADVNAQDKSGKTPADLAARAGHQDIAEVLQKAA
notes: also called 2-in-1 DARPin18 in Format 1
- EC50 (read off the curve) (scCD3εγ [3]): ~40 nM
- EC50 (read off the curve) (scCD3εγ [4]): ~100 nM
- shift in EC50 upon addition of 100 nM VEGF (scCD3εγ [5]): ~3 fold

B4: 2-in-1 DARPin 21 (SEQ ID NO: 90) (designed binder)
chain: DLGKKLLEAARAGQDDEVRILMANGADVNANDWFGITPLHLVVNNGHLEIIEVLLKYAADVNASDKSGWTPLHLAAYRGHLEIVEVLLKYGADVNAMDYQGYTPLHLAAEDGHLEIVEVLLKYGADVNAKDKFGKTPLHIAARAGHLEIVEVLLKAGADVNAADNTGTTPLHLAAYSGHLEIVEVLLKHGADVDASDVFGYTPLHLAAYWGHLEIVEVLLKNGADVNAMDSDGMTPLHLAAKWGYLEIVEVLLKHGADVNAQDKFGKTAFDISIDNGNEDLAEILQKAA
- EC50 (read off the curve) [6]: ~100 nM
- EC50 (read off the curve) [7]: ~20 nM
- Kd [8]: 66.9 nM

B5: 2-in-1 DARPin 22 (SEQ ID NO: 91) (designed binder)
chain: DLGKKLLEAARAGQDDEVRILMANGADVNANDWFGITPLHLVVNNGHLEIIEVLLKYAADVNASDKSGWTPLHLAAYRGHLEIVEVLLKYGADVNAMDYQGYTPLHLAAEDGHLEIVEVLLKYGADVNAKDKFGRTPLHIAARNGHLEIVEVLLKAGADVNAADNTGTTPLHLAAYSGHLEIVEVLLKHGADVDASDVFGYTPLHLAAYWGHLEIVEVLLKNGADVNAMDSDGMTPLHLAAKWGYLEIVEVLLKHGADVNAQDKFGKTAFDISIDNGNEDLAEILQKAA
- EC50 (read off the curve) [7]: ~10 nM
- Kd [8]: 52.6 nM

B6: Switchdrug DARPin 17-A (designed binder)
chain: MRGSHHHHHHGSDLGKKLLQAARAGQLDEVRELLKAGADVNAKDQYGRTPLHLAAIKGHLEIVEVLLKAGADVNAKDSLGYTPLHLAAVEGPLEIVEVLLKAGADVNAKDAYGQTPLHIAAAWGHLEIVEVLLKAVADVNAQDKSGKTPADLAARAGHQDIAEVLQKAAGSPTPTPTTPTPTPTTPTPTPTGSDLGQKLLEAAWAGQDDEVRELLKAGADVNAKNSRGWTPLHTAAQTGHLEIFEVLLKAGADVNAKNDKRVTPLHLAAALGHLEIVEVLLKAGADVNARDSWGTTPADLAAKYGHQDIAEVLQKAAGSPTPTPTTPTPTPTTPTPTPTGSDLGKKLLQAARAGQLDEVRELLKAGADVNAKDSTGWTPLHLAAPWGHPEIVEVLLKAGADVNAKDFQGWTPLHLAAAAGHLEIVEVLLKAGADVNAKDWLGWTPLHLAASHGHLEIVEVLLKAGADVNAQDKSGKTPADLAARAGHQDIAEVLQKAA
notes: also called 2-in-1 DARPin17 in Format A
- EC50 (read off the curve) (VEGF165): ~40 nM
- shift in EC50 upon addition of 100 nM VEGF (scCD3εγ [9]): ~90 fold

B7: Switchdrug DARPin 18-3 (designed binder)
chain: MRGSHHHHHHGSDLDKKLLEAARAGQDDEVRILLKAGADVNAKDSTGWTPLHLAAPWGHPEIVEVLLKAGADVNAKDFQGWTPLHLAAAAGHLEIVEVLLKAGADVNAKDVYGWTPLHIAAASGHLEIVEVLLKAGADVNAKDWLGWTPLHLAASHGHLEIVEVLLKAGADVNAQDKSGKTPADLAARAGHQDIAEVLQKAAGSPTPTPTTPTPTPTTPTPTPTGSDLGKKLLEAARAGQDDEVRELLKAGADVNAKDKDGYTPLHLAAREGHLEIVEVLLKAGADVNAKDKDGYTPLHLAAREGHLEIVEVLLKAGADVNAQDKSGKTPADLAADAGHEDIAEVLQKAAGSPTPTPTTPTPTPTTPTPTPTGSDLGQKLLEAAWAGQDDEVRELLKAGADVNAKNSRGWTPLHTAAQTGHLEIFEVLLKAGADVNAKNDKRVTPLHLAAALGHLEIVEVLLKAGADVNARDSWGTTPADLAAKYGHQDIAEVLQKAA
notes: also called 2-in-1 DARPin18 in Format 3
- EC50 (read off the curve) (scCD3εγ [2]): ~90 nM

B8: Switchdrug DARPin 18-A (designed binder)
chain: MRGSHHHHHHGSDLGKKLLQAARAGQLDEVRELLKAGADVNAKDQYGRTPLHLAAIKGHLEIVEVLLKAGADVNAKDSLGYTPLHLAAVEGPLEIVEVLLKAGADVNAKDAYGQTPLHIAAAWGHLEIVEVLLKAVADVNAQDKSGKTPADLAARAGHQDIAEVLQKAAGSPTPTPTTPTPTPTTPTPTPTGSDLGQKLLEAAWAGQDDEVRELLKAGADVNAKNSRGWTPLHTAAQTGHLEIFEVLLKAGADVNAKNDKRVTPLHLAAALGHLEIVEVLLKAGADVNARDSWGTTPADLAAKYGHQDIAEVLQKAAGSPTPTPTTPTPTPTTPTPTPTGSDLDKKLLEAARAGQDDEVRILLKAGADVNAKDSTGWTPLHLAAPWGHPEIVEVLLKAGADVNAKDFQGWTPLHLAAAAGHLEIVEVLLKAGADVNAKDVYGWTPLHIAAASGHLEIVEVLLKAGADVNAKDWLGWTPLHLAASHGHLEIVEVLLKAGADVNAQDKSGKTPADLAARAGHQDIAEVLQKAA
notes: also called 2-in-1 DARPin18 in Format A
- EC50 (read off the curve) (VEGF165): ~90 nM
- EC50 (read off the curve) (scCD3εγ [10]): ~90 nM
- shift in EC50 upon addition of 100 nM VEGF (scCD3εγ [9]): ~2 fold
- EC50 (read off the curve) (scCD3εγ [11]): ~200 nM

B9: Parent DARPin no 2 (SEQ ID NO: 87) (designed binder)
chain: DLGKKLLEAARAGQDDEVRILMANGADVNANDWFGITPLHLVVNNGHLEIIEVLLKYAADVNASDKSGWTPLHLAAYRGHLEIVEVLLKYGADVNAMDYQGYTPLHLAAEDGHLEIVEVLLKYGADVNAQDKFGKTAFDISIDNGNEDLAEILQKLN
- Kd [8]: 147 nM
